Test results published in the DeepSol protein solubility set.

Experiment: soluble on expression in E. coli; label from the status in PepcDB or PDB records

| Sequence | soluble on expression in E. coli |
| --- | --- |
| MTAYLNALGVICALGDSREEVARRLFAGDSSGMVVESGWVPERALPVGAVKGALPAMPPAMRSQHSRNNQLLLAAALQIKDEIGQAIEQYGAGRIGVIIGTSTSGIDEASSSMASWLRDQTFPADYDYRQQELGAPANFLATWLQLSGPAYVISTACTSSARALLSARRALDMGLCDAVLCGGVDSLCKLTLNGFSALEAMSPQLCNPFSLNRNGINIGEAAALFLMTREAGSTHSIALLGAGANCDAHHISAPEPSGRGARDAMLQALSNARLEAAQISYLNLHGTATQLNDAMESLAVQAVFPEGVPCSSTKSLSGHTLGAAGALEIAFCWLSLVPHNTEHALPPQVWDGAADPLLPALHWTVPGARLAAADTRYMMSNSFAFGGNNISLIIGDAP | not soluble |
| MFGRQVGRVVFRTASVVVQRRSVSASVPQMVKLVAPSVNFIQTRGSKIEVFGPFDPPKQLTFKQVEDRVLKAVRSWDRFPADKESLLKLDADLSKDFGFDSLDQVEIVMALEDEFGFEIPLQDSDKFKTIRDAFKYICEREDVYE | not soluble |
| MASRLFGVKCHNTDSEPLKNEDLLKNLLTMGVDIDMARKRQPGVFHRMITNEQDLKMFLLSKGASKEVIASIISRYPRAITRTPENLSKRWDLWRKIVTSDLEIVNILERSPESFFRSNNNLNLENNIKFLYSVGLTRKCLCRLLTNAPRTFSNSLDLNKQMVEFLQAAGLSLGHNDPADFVRKIIFKNPFILIQSTKRVKANIEFLRSTFNLNSEELLVLICGPGAEILDLSNDYARRSYANIKEKLFSLGCTEEEVQKFVLSYPDVIFLAEKKFNDKIDCLMEENISISQIIENPRVLDSSISTLKSRIKELVNAGCNLSTLNITLLSWSKKRYEAKLKKLSRFAHHHHHH | soluble |
| MAGDPMKNILIFPFLSISTGHHHVADALQAELESQGLAAEKIDIFSHSYRRLEKLSSVAYLKWIQYFPKTYSGIYRLLACGEFQHDKRYFMYECVFTQQMRHILQEKQPDIAFCTHALPSYLLNRLKPEYPNLTVVNVYTDFFVNQLWGRKNIDYHFVPSTEVKKQLISEGIDQNNIYLTGIPVHQNFEMESADTLQHHPPYTIIITGGSMGVGGILKWVQELSPGGKILYKILCGRNEKLYSYVKSLHHPLIEAIPYLHSKAEMNRLYEQATGIMTKPGGVTISECLQKRLPVFIYHALPGQEEMNLNLLHERKLVTDMRNWDMQKAEEYIAAFFQSNEQMKEYKKHVNGYLGEMSDRKIKDVLKRIIWKQKNTLLKLEHHHHHH | not soluble |
| MILRIIYTLLNYLSQPVLLLMMWRKTARHTKQTSRLWERYGIYRQLTAPRPQGIVIHAASVGEVIAATPLINAIQTHYPALPITVTTFTQTASERVQAIFANTVSHIYLPFDLPFAVNRFIKFTQPRLFIVIETELWPNLITQTYRQHIPFIIANGRLSARSLKHYQWFNPALQKILNQISMIIAQDQISAERYAQLGFNSQQLTTAGNLKFDLEISEQLRQTIQKTKQTLTLGNRPVWIAGSTHEGEDEIILATHQQLLSEWPDLLLILAPRHPNRFKNVENLLIKSELCYVKRSQQCPLTDHTQVLLADTLGEMMILYGLANIAFVGGSLIKHGGHNPLEPIAFGLPIISGIHTFNFLEIFNKLKAIHGVIEVTNDPADLAQAVNLLLKDPKKYTAIAQAGLSMLKANQGSLQRHLQLLAPYLEKLEHHHHHH | not soluble |
| MGSDKIHHHHHHMNNLYHLKVRCSSLHKIIGEPKSKADKEAGKLTDTAKSAVREMAKFDLFGYNAFEGNKYTQKGNELEEQAIKLSGVTRGLALKKNTERRENEFITGECDIYVPSRKLIIDTKCSWDIGSHPFFTDEAQEKAKKAGYDIQMQGYMWLWDCDQAQIDFVLFPTPLNLISAYDSDFKLIDLVEQIPQIRRITTVIIQRDNELIDKIKERVSAAQKYYDQLISEMS | not soluble |
| QDNALKQVAAMAKIADRYVSAWGSEAQVEDDTIRRLLASLGYDTSSDDALLQSAEKKHKKDVVDPVLVVHQGSAIEVPLYLGVSARESEFDWRLQTEQGEVLEGYLQSQIVRDERAEGGPLVFALPNDLPLGYHTLLIARKRRKAPYEMTLIVTPQACYKQPALAQ | not soluble |
| MVAGLTNGELIAPMTYEETMTSDFFEAWFQKFLLPTLTTPSVIIMDNARFHRMGKLELLCEEFGYKLLPLPPYSPEYNPIEKTWAHIKKHLKKVLPSCNTFYEALLSCSCFNLEHHHHHH | not soluble |
